Where no end group is shown, it is not given here.

Here are results for 1 molecule from article PMC4626869, “Subcellular trafficking of guanylyl cyclase/natriuretic peptide receptor-A with concurrent generation of intracellular cGMP” (Bioscience Reports, 2015).

This assay has as its target T1, enhanced GFP-tagged guanylyl cyclase/natriuretic peptide receptor-A (eGFP–NPRA fusion protein) (mouse, UniProt P18293 29-1057).
T1 sequence (looked up): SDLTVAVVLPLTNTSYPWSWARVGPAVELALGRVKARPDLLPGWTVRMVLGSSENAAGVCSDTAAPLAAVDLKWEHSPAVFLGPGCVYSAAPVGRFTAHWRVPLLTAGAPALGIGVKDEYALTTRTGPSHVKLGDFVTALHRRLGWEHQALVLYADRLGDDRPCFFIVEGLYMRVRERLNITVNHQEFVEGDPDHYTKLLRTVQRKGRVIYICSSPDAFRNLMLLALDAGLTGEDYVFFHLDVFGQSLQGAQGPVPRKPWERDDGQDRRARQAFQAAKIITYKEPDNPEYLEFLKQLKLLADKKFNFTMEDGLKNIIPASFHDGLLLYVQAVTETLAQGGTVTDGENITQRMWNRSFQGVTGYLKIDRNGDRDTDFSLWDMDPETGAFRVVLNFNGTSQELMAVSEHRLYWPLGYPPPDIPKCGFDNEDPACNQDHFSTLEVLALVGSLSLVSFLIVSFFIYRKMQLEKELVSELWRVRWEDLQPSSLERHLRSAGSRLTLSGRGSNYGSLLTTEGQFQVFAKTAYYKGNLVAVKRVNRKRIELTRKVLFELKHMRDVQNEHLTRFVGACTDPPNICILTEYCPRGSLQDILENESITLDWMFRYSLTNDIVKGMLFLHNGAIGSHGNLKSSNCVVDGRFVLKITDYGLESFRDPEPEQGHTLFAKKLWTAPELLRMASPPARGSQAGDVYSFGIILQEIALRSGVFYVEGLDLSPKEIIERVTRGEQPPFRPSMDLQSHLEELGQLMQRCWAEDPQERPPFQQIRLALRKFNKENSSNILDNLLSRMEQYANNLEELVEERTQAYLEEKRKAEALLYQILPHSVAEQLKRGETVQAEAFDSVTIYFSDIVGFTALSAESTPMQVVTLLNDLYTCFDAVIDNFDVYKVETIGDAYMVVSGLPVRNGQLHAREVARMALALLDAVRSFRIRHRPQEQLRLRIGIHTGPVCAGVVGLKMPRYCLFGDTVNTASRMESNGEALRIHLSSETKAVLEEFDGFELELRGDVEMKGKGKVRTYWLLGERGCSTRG
The assay can be described thus: cell-based or functional assay.

SLRRSSCFGGRIDRIGAQSGLGCNSFRY (ligand, rat, UniProt P01161 123-150, looked up, ends and bridges not checked; also: 125I label (residue not given here)) [Atrial natriuretic peptide (ANP), 125I-labelled]: the “cGMP immunofluorescence intensity in intact cells treated with 100 nM ANP (unlabelled) for 1, 5, 10, 15 and 30 min, fold over untreated cells” value amounted to 27 fold.
